This sample holds only a part of the variants without activity.
Assays:
biotinyl-Phe-oxazolone = experiment: self-aminoacylation, catalytic enhancement (BFO) (fold over background); higher = more active; k-Seq, kA / k0A0; sequences stand for … in GGGAAUGGAUCCACAUCUACGAAUUC…UUCACUGCAGACUUGACGAAGCUG
In short: (§1)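 Mutagenized RNA pools with a 21-nt variable region (0.43 μM) reacted with each biotinyl-aminoacyl-oxazolone at 2–1250 μM. Reactions ran in 50 μL HEPES/NaCl/KCl/MgCl2/CaCl2 buffer with 5% acetonitrile, pH 6.9–7.0, for 90 minutes at room temperature. Streptavidin-captured RNA was quantified by triplicate qPCR and Illumina sequencing, and per-sequence fraction reacted was fit to a pseudo-first-order model with 1000 bootstraps. Catalytic enhancement is median kA divided by the uncatalyzed rate, the low-activity peak of a bimodal Gaussian fit.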

biotinyl-Ile-oxazolone = experiment: self-aminoacylation, catalytic enhancement (BIO) (fold over background); higher = more active; k-Seq, kA / k0A0; sequences stand for … in GGGAAUGGAUCCACAUCUACGAAUUC…UUCACUGCAGACUUGACGAAGCUG
In short: as §1

biotinyl-Met-oxazolone = experiment: self-aminoacylation, catalytic enhancement (BMO) (fold over background); higher = more active; k-Seq, kA / k0A0; sequences stand for … in GGGAAUGGAUCCACAUCUACGAAUUC…UUCACUGCAGACUUGACGAAGCUG
In short: as §1

biotinyl-Val-oxazolone = experiment: self-aminoacylation, catalytic enhancement (BVO) (fold over background); higher = more active; k-Seq, kA / k0A0; sequences stand for … in GGGAAUGGAUCCACAUCUACGAAUUC…UUCACUGCAGACUUGACGAAGCUG
In short: as §1

biotinyl-Leu-oxazolone = experiment: self-aminoacylation, catalytic enhancement (BLO) (fold over background); higher = more active; k-Seq, kA / k0A0; sequences stand for … in GGGAAUGGAUCCACAUCUACGAAUUC…UUCACUGCAGACUUGACGAAGCUG
In short: as §1

biotinyl-Trp-oxazolone = experiment: self-aminoacylation, catalytic enhancement (BWO) (fold over background); higher = more active; k-Seq, kA / k0A0; sequences stand for … in GGGAAUGGAUCCACAUCUACGAAUUC…UUCACUGCAGACUUGACGAAGCUG
In short: as §1

Row | Sequence | self-aminoacylation (biotinyl-Phe-oxazolone) | self-aminoacylation (biotinyl-Ile-oxazolone) | self-aminoacylation (biotinyl-Met-oxazolone) | self-aminoacylation (biotinyl-Val-oxazolone) | self-aminoacylation (biotinyl-Leu-oxazolone) | self-aminoacylation (biotinyl-Trp-oxazolone)
1 | AAGUUUGCUGGUAGUCGCAAG [Fam3.1 aminoacylation ribozyme variant] | 1.12 | 0.97 | 0.778 | 0.86 | 0.96 | 0.864
2 | AAGUUUGCUUAUAGUGGCAAG [Fam3.1 aminoacylation ribozyme variant] | 1.38 | 0.789 | 0.861 | 0.711 | 0.644 | 0.94
3 | AAGUUUGCUUAUGGUCGCAAG [Fam3.1 aminoacylation ribozyme variant] | 0.863 | 0.54 | 0.728 | 0.727 | 0.603 | 0.782
4 | AAGUUUGCUUCUAGUCGCAAG [Fam3.1 aminoacylation ribozyme variant] | 1.54 | 1.39 | 0.998 | 1.23 | 1.2 | 1.11
5 | AAGUUUGGUAAGAGUCGCAAG [Fam3.1 aminoacylation ribozyme variant] | 1.7 | 1.58 | 1.3 | 1.3 | 1.43 | 1.31
6 | AAGUUUGGUAAUAGUCACAAG [Fam3.1 aminoacylation ribozyme variant] | 1.51 | 1.04 | 1.01 | 1.07 | 0.902 | 0.739
7 | AAGUUUGGUAAUAGUCCCAAG [Fam3.1 aminoacylation ribozyme variant] | 1.39 | 1.32 | 1.05 | 0.864 | 0.963 | 1.04
8 | AAGUUUGGUAAUAGUCGCUAG [Fam3.1 aminoacylation ribozyme variant] | 1.64 | 1.18 | 1.05 | 0.958 | 0.996 | 1.47
9 | AAGUUUGUUAAUAAUCGCAAG [Fam3.1 aminoacylation ribozyme variant] | 1.05 | 0.928 | 0.824 | 0.842 | 0.995 | 0.883
10 | AAGUUUGUUAAUACUCGCAAG [Fam3.1 aminoacylation ribozyme variant] | 1.07 | 0.893 | 0.692 | 0.81 | 0.76 | 0.7
11 | AAGUUUGUUAAUAGUCGCAAA [Fam3.1 aminoacylation ribozyme variant] | 2.15 | 1.8 | 1.63 | 1.32 | 1.68 | 1.43
12 | AAGUUUGUUAAUAGUCGCAAU [Fam3.1 aminoacylation ribozyme variant] | 2.29 | 1.73 | 1.5 | 1.45 | 1.51 | 1.94
13 | AAGUUUGUUAAUAGUCUCAAG [Fam3.1 aminoacylation ribozyme variant] | 1.62 | 1.22 | 1.23 | 1.15 | 1.02 | 1.23
14 | AAGUUUUCGAAUAGUCGCAAG [Fam3.1 aminoacylation ribozyme variant] | 3.28 | 2.14 | 1.82 | 1.81 | 1.86 | 2.24
15 | AAGUUUUCUAAUAGUCGCAAG [Fam3.1 aminoacylation ribozyme variant] | 2.64 | 1.51 | 1.23 | 1.31 | 1.32 | 1.58
16 | AAGUUUUCUAAUAGUCGCAGG [Fam3.1 aminoacylation ribozyme variant] | 3.74 | 1.59 | 1.6 | 1.52 | 1.55 | 2.19
17 | AAGUUUUCUAAUAGUCGCCAG [Fam3.1 aminoacylation ribozyme variant] | 2.81 | 1.78 | 1.54 | 1.32 | 1.15 | 1.91
18 | AAGUUUUCUAAUAGUCGCGAG [Fam3.1 aminoacylation ribozyme variant] | 5.94 | 2.02 | 1.84 | 1.71 | 1.88 | 2.99
19 | AAUACCCCGGUCAUCGAGUGA [Fam2.1 aminoacylation ribozyme variant] | 27.9 | 3.15 | 4.63 | 3.57 | 5.27 | 5.61
20 | AAUACCCUAGUCAUCGAGUGA [Fam2.1 aminoacylation ribozyme variant] | 15.4 | 2.46 | 4.24 | 2.64 | 4.49 | 5.18
21 | AAUACCCUGCUCAUCGAGUGA [Fam2.1 aminoacylation ribozyme variant] | 1.69 | 1.08 | 1.22 | 1.3 | 1.6 | 1.17
22 | AAUACCCUGGUCAUCGAGCGA [Fam2.1 aminoacylation ribozyme variant] | 1.56 | 1.65 | 2.03 | 1.66 | 1.55 | 2.75
23 | AAUACCCUGGUCAUUGAGUGA [Fam2.1 aminoacylation ribozyme variant] | 17.1 | 2.98 | 5.79 | 2.9 | 5.25 | 6.33
24 | AAUCAACUAGGUCAUCGGGUG [Fam2.2 aminoacylation ribozyme variant] | 39.7 | 4.49 | 5.89 | 4.4 | 6.32 | 6.47
25 | AAUCACCCAGGUCAUCGGGUG [Fam2.2 aminoacylation ribozyme variant] | 27.9 | 4.58 | 4.82 | 4.93 | 3.76 | 6.23

Source: the supplement of paper PMC9233669
